Literature values in patent US8163700B2, “Inhibitors of myelin-associated glycoprotein (MAG) activity for regulating neural growth and regeneration” (Research Foundation of City University of New York, priority 2002, dated 2012).

Assays:
Nogo = target: T1, Nogo (Homo sapiens, UniProt Q9NQC3, S458P); conditions: described in the art; cited from earlier work
T1 sequence (Q9NQC3 1-1192 S458P): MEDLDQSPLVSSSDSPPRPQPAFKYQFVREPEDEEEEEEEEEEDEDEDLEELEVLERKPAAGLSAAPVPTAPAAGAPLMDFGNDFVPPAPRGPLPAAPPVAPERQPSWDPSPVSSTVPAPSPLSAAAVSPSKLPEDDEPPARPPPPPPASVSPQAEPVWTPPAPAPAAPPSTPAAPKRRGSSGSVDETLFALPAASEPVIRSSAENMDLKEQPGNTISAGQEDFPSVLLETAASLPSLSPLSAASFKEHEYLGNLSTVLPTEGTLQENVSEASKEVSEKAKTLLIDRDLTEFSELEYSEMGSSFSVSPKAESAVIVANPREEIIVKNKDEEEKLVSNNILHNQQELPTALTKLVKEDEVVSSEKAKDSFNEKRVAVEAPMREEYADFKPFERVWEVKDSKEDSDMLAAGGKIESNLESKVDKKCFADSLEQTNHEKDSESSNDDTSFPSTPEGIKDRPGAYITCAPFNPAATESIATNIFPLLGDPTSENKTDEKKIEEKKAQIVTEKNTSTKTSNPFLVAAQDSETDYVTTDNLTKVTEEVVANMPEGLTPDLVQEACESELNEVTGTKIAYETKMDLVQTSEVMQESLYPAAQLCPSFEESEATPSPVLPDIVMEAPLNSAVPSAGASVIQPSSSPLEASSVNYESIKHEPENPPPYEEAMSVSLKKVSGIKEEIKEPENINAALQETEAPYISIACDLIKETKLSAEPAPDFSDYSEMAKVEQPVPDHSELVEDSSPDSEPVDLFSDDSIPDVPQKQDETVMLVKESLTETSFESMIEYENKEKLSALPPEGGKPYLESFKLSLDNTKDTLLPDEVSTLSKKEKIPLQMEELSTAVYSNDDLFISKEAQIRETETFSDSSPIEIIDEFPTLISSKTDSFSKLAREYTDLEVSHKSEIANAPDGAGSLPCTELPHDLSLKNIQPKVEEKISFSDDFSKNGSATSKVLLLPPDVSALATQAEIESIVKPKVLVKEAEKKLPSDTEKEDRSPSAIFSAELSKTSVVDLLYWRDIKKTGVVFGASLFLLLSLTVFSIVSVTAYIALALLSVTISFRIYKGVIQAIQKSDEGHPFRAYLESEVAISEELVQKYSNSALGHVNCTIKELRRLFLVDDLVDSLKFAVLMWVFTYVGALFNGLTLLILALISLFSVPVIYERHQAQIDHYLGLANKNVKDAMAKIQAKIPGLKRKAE

NgR = target: T2, NgR (Homo sapiens, UniProt Q9BZR6); conditions: described in the art; cited from earlier work
T2 sequence (Q9BZR6 27-447): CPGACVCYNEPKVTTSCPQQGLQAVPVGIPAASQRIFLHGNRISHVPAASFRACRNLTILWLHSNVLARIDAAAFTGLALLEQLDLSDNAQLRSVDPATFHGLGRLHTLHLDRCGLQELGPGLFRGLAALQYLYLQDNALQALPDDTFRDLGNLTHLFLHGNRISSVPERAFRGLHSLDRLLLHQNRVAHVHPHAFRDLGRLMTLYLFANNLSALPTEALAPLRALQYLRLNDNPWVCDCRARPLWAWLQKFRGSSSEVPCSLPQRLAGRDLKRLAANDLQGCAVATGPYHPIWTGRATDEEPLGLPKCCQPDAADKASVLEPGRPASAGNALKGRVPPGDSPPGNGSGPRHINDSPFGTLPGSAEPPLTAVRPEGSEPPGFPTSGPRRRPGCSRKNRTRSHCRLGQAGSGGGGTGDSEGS

Nogo-66 amino acid residues 31-55: prior-art peptide of Nogo-66 residues 31-55 (hNogo-A residues 1085-1109 of SEQ ID NO: 9) (EELVQKYSNSALGHVNCTIKELRRL; listed as Homo sapiens)
inhibition of axonal outgrowth (Nogo): inhibit axonal outgrowth
binding to NgR (NgR): can bind to NgR
